Test [1] concerns POTH1 overexpression lines. In words: Exogenous GA3 application to POTH1 overexpression lines. The format is in vivo, Solanum tuberosum. An excerpt: Many of the traits of the phenotypes observed in POTH1 overexpression lines were similar to GA-deficient mutants. These similarities included decreased plant height, decreased internode length, and darker green coloration of the leaves (van den Berg et al., “Morphology and [^14C]Gibberellin A12 Metabolism in Wild-Type and Dwarf Solanum Tuberosum ssp. Andigena Grown Under Long and Short Photoperiods,” J. Plant Physiol. 146:467-473 (1995), which is hereby incorporated by reference in its entirety). Because of this, exogenous GA3 was applied to determine whether the overexpression lines were responsive to GA treatment. The shoot apex of overexpression lines was sprayed to runoff with 10 μM GA3 in 0.002% (v/v) ethanol or with 0.002% (v/v) ethanol alone. […] Palisade and spongy parenchyma organization is partially rescued in leaves from line 15 treated with GA3 (FIG. 5G). The GA3-treated leaf (FIG. 5J) of the severe mutant, line 15, is more similar in morphology to the wild-type leaf (FIG. 5K). Leaflets are more ovate in form rather than the typical mouse-ear shape. Wild-type leaves have a prominent mid-vein (FIG. 5L), whereas the mid-vein (FIG. 5M, arrow) is more prominent in the mutant GA3-treated leaf than in the mutant untreated leaf (FIG. 5N). […]

Another test concerns POTH1. In words: Yeast two-hybrid interaction with POTH1. The format is binding, Solanum tuberosum. Conditions: nutritional selection and lacZ activation, yeast AH109. An excerpt:
The Matchmaker two-hybrid system (Clontech, Calif.) was used for the yeast two-hybrid screen. Yeast transformation and plasmid rescue into DH5-α E. coli cells were according to the manufacturer's instructions. Full-length POTH1 was cloned into the pBridge (Clontech, Calif.) vector and used as bait to screen the potato (S. tuberosum ‘Desireé’) stolon cDNA library in pAD-GAL4-2.1 (Stratagene, Calif.). Positive interactions were confirmed by cotransforming yeast strain AH109 with each purified pAD plasmid and pBridge: POTH1 and plating on -leucine/-tryptophan (transformation control) and -leucine/-tryptophan/-histidine/-adenine (selection) nutrient medium. Induction of the AH109 reporter gene, lacZ, was measured with a yeast β-galactosidase assay kit (Pierce Chemicals). β-galactosidase activity (FIG. 9B) was determined from a known density of yeast cells and calculated as 1000×OD420/time of color reaction (minutes)×volume of yeast culture (ml)×OD600.
The StBEL-05 deletion constructs were amplified by PCR, then cloned into the vector, pGAD, in-frame with the GAL4 activation domain. POTH1 deletion constructs were amplified by PCR, and cloned into pBridge (Clontech) in-frame with the GAL4 binding domain. Sequencing of selected cDNAs and constructs was performed at the Iowa State University DNA Facility. For deletion analysis, modified constructs of POTH1 were cloned into the pBridge vector for fusion with the DNA-binding domain of GAL4 (FIG. 10A). For StBEL-05, constructs were cloned into the pGAD vector for fusion with the activating domain of GAL4 (FIG. 10B). Deletion constructs were made from both the amino and carboxy termini. These mutants were then tested for interaction in the yeast two-hybrid system by cotransforming into yeast strain AH109 with the corresponding full-length partner (StBEL-05 in pGAL4 or POTH1 in pBridge). All constructs were sequenced to verify that they were in-frame. Positive interactions were verified for lacZ induction by using a β-galactosidase assay (Pierce Chemical Company). For POTH1, seven deletion constructs were tested (FIG. 10A). For the BEL TFs, a fusion construct of StBEL-05 (653 aa of StBEL-05 sequence) and nine deletion constructs were tested (FIG. 10B).

Entries after “also recorded” stand apart in the source; their conditions may differ.

Sequence of POTH1 (as listed by the source): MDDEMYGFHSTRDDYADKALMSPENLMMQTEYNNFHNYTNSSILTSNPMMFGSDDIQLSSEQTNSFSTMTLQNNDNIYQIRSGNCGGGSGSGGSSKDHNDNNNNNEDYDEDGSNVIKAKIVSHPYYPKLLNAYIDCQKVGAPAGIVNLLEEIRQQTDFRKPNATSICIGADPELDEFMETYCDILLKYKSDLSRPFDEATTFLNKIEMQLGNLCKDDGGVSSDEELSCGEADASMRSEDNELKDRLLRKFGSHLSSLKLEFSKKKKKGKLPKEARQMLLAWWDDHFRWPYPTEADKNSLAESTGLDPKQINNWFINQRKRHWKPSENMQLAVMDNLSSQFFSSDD

Consider `C=C1C[C@]23C[C@@]1(O)CC[C@H]2[C@@]12C=C[C@H](O)[C@@](C)(C(=O)O1)[C@H]2[C@@H]3C(=O)O` [GA3], for which the “effect on leaf morphology” value in test [1] (10 μM GA3 sprayed on shoot apex) is “partially rescued the leaf morphology of both severe and intermediate phenotypes; also recorded: partial reversal of the leaf phenotype”. Further, in test [1] (GA3 application), the “effect on dwarf phenotype” value was “completely rescued the dwarf phenotype”.

B1: StBEL-22: BEL transcription factor from Solanum tuberosum, SEQ ID NO:10 (protein, listed as Solanum tuberosum)
chain: TSVYETAGLLSEMFNFQTTSTAATELLQNQLSNNYRHPNQQPHHQPPTREWFGNRQEIVVGGSLQVTFGDTKDDVNAKVLLSNRDSVTDYYQRQHNQVPSINTAESMQLFLMNPQPSSPSQSTPSTLHQGFSSPVGGHFSQFMCGGASTSSNPIGGVNVIDQGQGLSLSLSSTLQHLEASKVEDLRMNSGGEMLFFNQESQNHHNIGFGSSLGLVNVLRNSKYVKATQELLEEFCCVGKGQLFKKINKVSRNNNTSTSPIINPSGSNNNNSSSSKAIIPPNLSTAERLDHQRRKVKLLSMLDEVEKRYNHYCEQMQMVVNSFDLVMGFGAAVPYTALAQKAMSRHFKCLKDGVAAQLKKTCEALGEKDASSSSGLTKGETPRLKVLEQSLRQQRAFQQMGMMEQEAWRPQRGLPERSVNILRAWLFEHFLHPYPSDADKHLLARQTGLSRNQVANWFINARVRLWKPMVEEMYQREVNEDDVDDMQENQNSTNTQIPTPNIIITTNSNITETKSAATATIASDKKPQINVSEIDPSIVAMNTHYSSSMPTQLTNFPTIQDESDHILYRRSGAEYGTTNMASNSEIGSNMITFGTTTASDVSLTLGLRHAGNLPENTHFSG
As for B1, the “interaction with POTH1” value in the test with POTH1 is “showed selective interaction”.

B2: StBEL-11: BEL transcription factor from Solanum tuberosum, SEQ ID NO:4 (protein, listed as Solanum tuberosum)
chain: MTFRSSLPLDLREISTTNHQVGILSSSPLPSPGTNTNNINHTRGLGASSSFSISNGMILGSKYLKVAQDLLDEVVNVGKNIKLSDGLESGAKEKHKLDNELISLASDDVESSSQKNSGVELTTAQRQELQMKKAKLVSMLDEVDQRYRQYHHQMQMIATSFEQTTGIGSSKSYTQLALHTISKQFRCLKDAISGQIKDTSKTLGEEENIGGKIEGSKLKFVDHHLRQQRALQQLGMMQTNAWKPQRGLPERAVSVLRAWLFEHFLHPYPKDSDKIILAKQTGLTRSQVSNWFINARVRLWKPMVEEMYMEEVKKNNQEQNIEPNNNEIVGSKSSVPQEKLPISSNIIHNASPNDISTSTISTSPTGGGGSIPTQTVAGFSFIRSLNMENIDDQRNNKKARNEMQNCSTSTILSMEREIINKVVQDETIKSEKFNNTQTRECYSLMTPNYTMDDQFGTRFNNQNHEQLATTTTFHQGNGHVSLTLGLPPNSENQHNYIGLENHYNQPTHHPNISYENIDFQSGKRYATQLLQDFVS
On to B2, for which the “interaction with POTH1” value in the test on POTH1 is “showed selective interaction”.

B3: StBEL-14: BEL transcription factor from Solanum tuberosum, SEQ ID NO:8 (protein, listed as Solanum tuberosum)
chain: MVNHQLQNFETNPEMYNLSSTTSSMDQMIGFPPNNNNPHHVLWKGNFPNKINGVDDDDHGPSSSKNIISEQFYQHGSHENMLTTTTTHHDDHQGSWHHDNNRTLLVDDPSMRCVFPCEGNERPSHGLSLSLCSSNPSSIGLQSFELRHQDLQQGLIHDGFLGKSTNIQQGYFHHHHQVRDSKYLGPAQELLSEFCSLGIKKNNDHSSSKVLLKQHESTASTSKKQLLQSLDLLELQKRKTKLLQMLEEVDRRYKHYCDQMKAVVSSFEAVAGNGAATVYSALASRAMSRHFRCLRDGIVAQIKATKMAMGEKDSTSTLIPGSTRGETPRLRLLDQTLRQQKAFQQMNMMETHPWRPQRGLPERSVSVLRAWLFEHFLHPYPSDVDKHILARQTGLSRSQVSNWFINARVRLWKPMVEEMYLEETKEEENVGSPDGSKALIDDMTIHQSHIDHHQADQKPNLVRIDSECISSIINHQPHEKNDQNYGVIRGGDQSFGAIELDFSTNIAYGTSGGDHHHHGGGVSLTLGLQQHGGSGGSSMGLTTFSSQPSHNQSSLFYPRDDDQVQYSSLLDSENQNLPYRNLDGGTTSS
Regarding B3, the “interaction with POTH1” value in the test with POTH1 is “showed selective interaction”.

B4: StBEL-29: BEL transcription factor from Solanum tuberosum, SEQ ID NO:12 (protein, listed as Solanum tuberosum)
chain: QGLSLSLSSSQQPGFGNFTAARELVSSPSGSASASGIQQQQQQQQSISSVPLSSKYMKAAQELLDEVVNVGKSMKSTNSTDVVVNNDVKKSKNMGDMDGQLDGVGADKDGAPTTELSTGERQEIQMKKAKLVNMLDEVEQRYRHYHHQMQSVIHWLEQAAGIGSAKTYTALALQTISKQFRCLKDAIIGQIRSASQTLGEEDSLGGKIEGSRLKFVDNQLRQQRALQQLGMIQHNAWRPQRGLPERAVSVLRAWLFEHFLHPYPKDSDKMMLAKQTGLTRSQVSNWFINARVRLWKPMVEEMYLEEIKEHEQNGLGQEKTSKLGEQNEDSTTSRSIATQDKSPGSDSQNKSFVSKQDNHLPQHNPASPMPDVQRHFHTPIGMTIRNQSAGFNLIGSPEIESINITQGSPKKPRNNEMLHSPNSIPSINMDVKPNEEQMSMKFGDDRQDRDGFSLMGGPMNFMGGFGAYPIGEIARFSTEQFSAPYSTSGTVSLTLGLPHNENLSMSATHHSFLPIPTQNIQIGSEPNHEFGSLNTPTSAHSTSSVYETFNIQNRKRFAAPLLPDFVA
B4: in the test with POTH1, the “interaction with POTH1” value was “showed selective interaction”.

B5: pAD5-9: StBEL-05 deletion construct, aa 1 through 315 (protein)
chain: MNPNNYMQGYTTSDTQQQQQLLFLNSSPAASNALCHANIQHAPLQQQHFVGVPLPAVSLHDQINHHGLLQRMWNNQDQSQQVIVPSSTGVSATSCGGITTDLASQLAFQRPIPTPQHRQQQQQQGGLSLSLSPQLQQQISFNNNISSSSPRTNNVTIRGTLDGSSSNMVLGSKYLKAAQELLDEVVNIVGKSIKGDDQKKDNSMNKESMPLASDVNTNSSGGGESSSRQKNEVAVELTTAQRQELQMKKAKLLAMLEEVEQRYRQYHHQMQIIVLSFEQVAGIGSAKSYTQLALHAISKQFRCLKDAIAEQVKAT
modifications: left off: large carriers
Take B5: in the test on POTH1, the “interaction with POTH1” value is on record as “demonstrated an interaction; also recorded: interaction with POTH1”.

For the origin of these results see patent US7265263B1, “Potato transcription factors, methods of use thereof, and a method for enhancing tuber development” (Iowa State University Research Foundation, Inc., priority 2002, dated 2007).
